Measurements: PMC5794981

Molecular target: aflibercept (Eylea) (human)
Assay: SEC; Superdex 200 Increase 10/300 GL, aflibercept diluted in PBS to 8 mg/ml, 77 ul injected, 25 °C; samples stored 0, 7 or 28 days

Sequence of aflibercept (Eylea) (Fc fusion) (chain): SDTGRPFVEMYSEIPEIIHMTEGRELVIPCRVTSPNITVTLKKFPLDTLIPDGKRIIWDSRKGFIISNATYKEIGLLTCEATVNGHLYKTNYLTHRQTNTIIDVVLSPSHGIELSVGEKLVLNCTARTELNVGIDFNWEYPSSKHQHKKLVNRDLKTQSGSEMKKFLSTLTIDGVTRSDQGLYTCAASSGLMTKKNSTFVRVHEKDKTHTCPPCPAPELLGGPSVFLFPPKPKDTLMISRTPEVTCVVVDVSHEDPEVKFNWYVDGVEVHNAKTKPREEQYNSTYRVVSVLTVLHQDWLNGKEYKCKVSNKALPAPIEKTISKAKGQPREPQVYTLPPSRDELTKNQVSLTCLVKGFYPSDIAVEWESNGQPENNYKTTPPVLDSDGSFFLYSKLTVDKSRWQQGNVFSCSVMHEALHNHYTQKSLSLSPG

## aflibercept (Eylea) (Fc fusion)
  stoichiometry N: 2
